{
  "source": "paper PMC8069034",
  "origin": "cited, not measured here",
  "target": "IL13 (Homo sapiens) (UniProt P35225)",
  "sequence (P35225 25-146)": "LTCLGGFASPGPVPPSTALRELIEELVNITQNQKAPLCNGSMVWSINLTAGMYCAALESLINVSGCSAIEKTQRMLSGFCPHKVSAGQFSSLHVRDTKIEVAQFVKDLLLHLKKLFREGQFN",
  "test": "SPR",
  "data": [
    {"substance": "tralokinumab", "values": [
      {"measurement": "Kd", "result": 0.058, "unit": "nM"}
    ]}
  ]
}
